Results published in the supplement of paper PMC6757056.
± gives the standard deviation of the averaged measurements.

B1: library; a variant is named by its letters at N, in order (parent)
chain: GCUGUCACCGGUGUAUUACCCUAGUGGUCGACCGGUCUGAUGAGUCUNNNNNNAGACGAAACAGC

How the values were obtained:
hypoxanthine [1] = variants of: B1; assay: FACS-Seq fitted mean relative fluorescence mCherry/BFP without ligand (log10 relative fluorescence); ligand: hypoxanthine (xanthine aptamer); higher = higher reporter protein expression; settings: HEK293T, ligand present: no
How it was run: (§1)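 Fluorescence comes from a normal fit to bin counts, normalized against controls. HEK293T libraries lentivirally given a ribozyme-switch mCherry reporter and an EF1α-BFP marker were enriched, incubated 48 h with or without ligand, and sorted by mCherry/BFP into 6 bins. Bin genomic DNA was PCR-amplified, barcoded and sequenced on MiSeq. The log10(mCherry/BFP) mean was scaled to five spiked-in control ribozymes.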

hypoxanthine [2] = variants of: B1; assay: normalized RNA/DNA level with ligand (relative to sTRSVctl = 100) (log10 (% of sTRSVctl)); ligand: hypoxanthine (xanthine aptamer); higher = less ribozyme self-cleavage, higher mRNA level; settings: ligand concentration (+) RNA-Seq: 5 mM, HEK293T, reporter: mCherry (pCS4076), ligand present: yes
How it was run: (§2)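 For each 6-well well, 4 µg of library plasmid encoding mCherry-linked ribozyme switches, or eGFP-linked ones in some ligand experiments, was transfected into HEK293T. Any ligand was added 1 h before transfection, and RNA was extracted with EDTA 72 h after it, then reverse-transcribed, amplified, barcoded and sequenced. RNA level was obtained by dividing RNA reads by DNA reads, normalizing to a spiked-in non-cleaving sequence or to the top sequences, then scaling and log-transforming. The top set was 25 sequences, scaling was ×100 with log10, and ≥100 DNA reads were required.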

hypoxanthine [3] = variants of: B1; assay: normalized RNA/DNA level without ligand (relative to sTRSVctl = 100) (log10 (% of sTRSVctl)); ligand: hypoxanthine (xanthine aptamer); higher = less ribozyme self-cleavage, higher mRNA level; settings: HEK293T, reporter: mCherry (pCS4076), ligand present: no
How it was run: as §2

hypoxanthine [4] = variants of: B1; assay: FACS-Seq fitted mean relative fluorescence mCherry/BFP with ligand (log10 relative fluorescence); ligand: hypoxanthine (xanthine aptamer); ligand concentration (+) FACS-Seq: 5 mM; higher = higher reporter protein expression; settings: HEK293T, ligand present: yes
How it was run: as §1

| Variant | FACS-Seq fitted mean (log10) (hypoxanthine [1]) | normalized RNA/DNA level with ligand (log10) (hypoxanthine [2]) | normalized RNA/DNA level without ligand (log10) (hypoxanthine [3]) | FACS-Seq fitted mean (log10) (hypoxanthine [4]) |
| --- | --- | --- | --- | --- |
| CUCACU | 0.473 ± 0.021 | 1.99 ± 0.041 | 1.92 ± 0.05 | 0.419 ± 0.12 |
| AUCAGA | -0.0827 ± 0.0075 | 1.9287 ± 0.00064 | 1.828 ± 0.0044 | 0.00695 ± 0.085 |
| GUCAGA | -0.213 ± 0.0037 | 1.897 ± 0.0028 | 1.74 ± 0.042 | -0.0451 ± 0.017 |
| GUCAGC | 0.371 ± 0.0086 | 1.925 ± 0.011 | 1.79 ± 0.018 | 0.605 ± 0.059 |
| AUCAGG | 0.386 ± 0.072 | 1.87 ± 0.01 | 1.48 ± 0.061 | 0.617 ± 0.048 |
| GUCAGG | 0.326 ± 0.071 | 1.858 ± 0.016 | 1.46 ± 0.042 | 0.67 ± 0.0068 |
| AUCAGU | 0.169 ± 0.016 | 1.885 ± 0.012 | 1.772 ± 0.0019 | 0.476 ± 0.069 |
| GUCAGU | 0.34 ± 0.024 | 1.94 ± 0.023 | 1.833 ± 0.0092 | 0.492 ± 0.11 |
| AUCAUA | 0.467 ± 0.023 | 1.92 ± 0.035 | 1.798 ± 0.0029 | 0.562 ± 0.061 |
| GUCAUG | 0.242 ± 0.025 | 1.9 ± 0.027 | 1.53 ± 0.025 | 0.491 ± 0.014 |
| AUCAUU | 0.581 ± 0.01 | 1.96 ± 0.037 | 1.96 ± 0.029 | 0.691 ± 0.072 |
| AUCCAA | 0.618 ± 0.059 | 1.923 ± 0.016 | 1.79 ± 0.07 | 0.708 ± 0.06 |
| GUCCAA | 0.669 ± 0.0074 | 1.89 ± 0.065 | 1.79 ± 0.035 | 0.655 ± 0.08 |
| GUCCAC | -0.048 ± 0.034 | 1.94 ± 0.054 | 1.848 ± 0.0045 | 0.0349 ± 0.08 |
| UUCCAC | 0.451 ± 0.048 | 1.97 ± 0.077 | 1.88 ± 0.027 | 0.5314 ± 0.0026 |
| AUCCAG | 0.222 ± 0.062 | 1.92 ± 0.034 | 1.55 ± 0.096 | 0.446 ± 0.052 |
| GUCCAG | 0.3111 ± 0.00085 | 1.863 ± 0.015 | 1.48 ± 0.054 | 0.723 ± 0.0074 |
| AUCCAU | 0.676 ± 0.075 | 1.96 ± 0.015 | 1.86 ± 0.032 | 0.6901 ± 0.0038 |
| CUCCAU | -0.247 ± 0.08 | 1.96 ± 0.023 | 1.8932 ± 0.0013 | 0.134 ± 0.038 |
| AUCCCG | 0.0616 ± 0.017 | 1.86 ± 0.04 | 1.51 ± 0.11 | 0.148 ± 0.14 |
| GUCCCG | 0.415 ± 0.0031 | 1.91 ± 0.0099 | 1.64 ± 0.12 | 0.511 ± 0.028 |
| UUCCCG | 0.397 ± 0.063 | 1.919 ± 0.0045 | 1.83 ± 0.046 | 0.514 ± 0.064 |
| AUCCGA | 0.296 ± 0.067 | 1.92 ± 0.014 | 1.758 ± 0.012 | 0.5594 ± 0.0019 |
| AUCCGC | 0.3452 ± 0.0029 | 1.931 ± 0.011 | 1.8 ± 0.024 | 0.517 ± 0.049 |

| Variant | FACS-Seq fitted mean (log10) (hypoxanthine [1]) | normalized RNA/DNA level with ligand (log10) (hypoxanthine [2]) | normalized RNA/DNA level without ligand (log10) (hypoxanthine [3]) | FACS-Seq fitted mean (log10) (hypoxanthine [4]) |
| --- | --- | --- | --- | --- |
| GUCCGG | 0.2204 ± 0.002 | 1.9355 ± 0.0013 | 1.64 ± 0.081 | 0.524 ± 0.11 |
| AUCCUC | -0.169 ± 0.0024 | 2.021 ± 0.0097 | 1.97 ± 0.04 | -0.394 ± 0.056 |
| AUCCUG | 0.0565 ± 0.03 | 1.944 ± 0.013 | 1.54 ± 0.086 | 0.437 ± 0.048 |
| UUCCUG | -0.284 ± 0.019 | 1.93 ± 0.041 | 1.756 ± 0.0019 | -0.379 ± 0.12 |
| CUCGAA | 0.449 ± 0.073 | 1.92 ± 0.068 | 1.75 ± 0.037 | 0.395 ± 0.041 |
| GUCGAA | 0.322 ± 0.039 | 1.92 ± 0.034 | 1.69 ± 0.021 | 0.22 ± 0.072 |
| UUCGAA | 0.708 ± 0.021 | 1.938 ± 0.0037 | 1.7 ± 0.045 | 0.716 ± 0.059 |
| AUCGAC | 0.449 ± 0.044 | 1.95 ± 0.063 | 1.81 ± 0.054 | 0.415 ± 0.12 |
| GUCGAC | 0.245 ± 0.035 | 1.92 ± 0.031 | 1.68 ± 0.033 | 0.428 ± 0.1 |
| AUCGAG | 0.2633 ± 0.00067 | 1.793 ± 0.014 | 1.35 ± 0.044 | 0.4 ± 0.028 |
| GUCGAG | 0.248 ± 0.065 | 1.81 ± 0.062 | 1.41 ± 0.072 | 0.65 ± 0.073 |
| AUCGAU | 0.371 ± 0.032 | 1.9 ± 0.025 | 1.669 ± 0.0035 | 0.284 ± 0.033 |
| CUCGAU | 0.5204 ± 0.0026 | 1.93 ± 0.017 | 1.83 ± 0.081 | 0.642 ± 0.061 |
| UUCGAU | 0.164 ± 0.024 | 1.88 ± 0.019 | 1.767 ± 0.00052 | 0.303 ± 0.0063 |
| GUCGCA | 0.304 ± 0.021 | 1.94 ± 0.037 | 1.788 ± 0.0024 | 0.56 ± 0.0098 |
| UUCGCA | 0.4682 ± 0.0031 | 1.95 ± 0.051 | 1.86 ± 0.067 | 0.512 ± 0.038 |
| AUCGCC | 0.477 ± 0.12 | 1.95 ± 0.028 | 1.91 ± 0.034 | -0.391 ± 0.0099 |
| GUCGGA | -0.358 ± 0.082 | 1.98 ± 0.055 | 1.79 ± 0.027 | -0.116 ± 0.049 |
| CUCGGC | 0.2237 ± 0.00057 | 1.97 ± 0.12 | 1.92 ± 0.093 | 0.24 ± 0.018 |
| GUCGGC | 0.485 ± 0.026 | 1.91 ± 0.025 | 1.68 ± 0.042 | 0.81 ± 0.023 |
| CUCGGG | 0.547 ± 0.055 | 1.923 ± 0.0029 | 1.657 ± 0.0028 | 0.46 ± 0.0048 |
| GUCGGG | 0.355 ± 0.068 | 1.882 ± 0.0031 | 1.58 ± 0.12 | -0.0447 ± 0.038 |
| CUCGGU | -0.663 ± 0.081 | 1.94 ± 0.022 | 1.85 ± 0.041 | -0.785 ± 0.082 |
| UUCGGU | 0.323 ± 0.015 | 1.93 ± 0.044 | 1.78 ± 0.036 | 0.492 ± 0.007 |

| Variant | FACS-Seq fitted mean (log10) (hypoxanthine [1]) | normalized RNA/DNA level with ligand (log10) (hypoxanthine [2]) | normalized RNA/DNA level without ligand (log10) (hypoxanthine [3]) | FACS-Seq fitted mean (log10) (hypoxanthine [4]) |
| --- | --- | --- | --- | --- |
| UUCGUA | 0.252 ± 0.0058 | 1.93 ± 0.064 | 1.87 ± 0.026 | 0.384 ± 0.035 |
| AUCUAA | 0.268 ± 0.023 | 1.905 ± 0.019 | 1.78 ± 0.022 | 0.411 ± 0.03 |
| GUCUAA | 0.326 ± 0.054 | 1.94 ± 0.048 | 1.801 ± 0.0053 | 0.458 ± 0.0071 |
| UUCUAA | 0.391 ± 0.23 | 1.961 ± 0.018 | 1.85 ± 0.077 | -0.13 ± 0.28 |
| GUCUAG | 0.584 ± 0.051 | 1.87 ± 0.053 | 1.53 ± 0.044 | 0.604 ± 0.11 |
| GUCUCG | 0.392 ± 0.059 | 1.94 ± 0.094 | 1.7 ± 0.022 | 0.575 ± 0.11 |
| UUCUCG | 0.24 ± 0.0079 | 2.01 ± 0.034 | 1.854 ± 0.0077 | 0.362 ± 0.0084 |
| GUCUCU | 0.359 ± 0.039 | 1.97 ± 0.039 | 1.98 ± 0.092 | 0.302 ± 0.052 |
| AUCUGA | 0.724 ± 0.047 | 1.96 ± 0.049 | 1.83 ± 0.045 | 0.684 ± 0.016 |
| CUCUGC | -0.384 ± 0.044 | 1.892 ± 0.0033 | 1.882 ± 0.0062 | -0.335 ± 0.067 |
| AUCUGG | 0.338 ± 0.0078 | 1.84 ± 0.023 | 1.426 ± 0.0099 | 0.609 ± 0.05 |
| UUCUGG | 0.955 ± 0.026 | 1.931 ± 0.0039 | 1.8 ± 0.023 | 0.764 ± 0.068 |
| AUCUUG | 0.269 ± 0.0029 | 1.846 ± 0.015 | 1.59 ± 0.039 | 0.48 ± 0.04 |
| AUGAAA | 0.631 ± 0.058 | 1.87 ± 0.021 | 1.7 ± 0.033 | 0.625 ± 0.011 |
| CUGAAA | 0.56 ± 0.015 | 1.93 ± 0.027 | 1.74 ± 0.018 | 0.587 ± 0.036 |
| UUGAAA | 0.426 ± 0.1 | 1.953 ± 0.0063 | 1.77 ± 0.044 | 0.614 ± 0.07 |
| AUGAAC | 0.618 ± 0.07 | 1.9 ± 0.025 | 1.73 ± 0.025 | 0.583 ± 0.02 |
| AUGAAG | -0.113 ± 0.019 | 1.73 ± 0.031 | 1.13 ± 0.053 | 0.639 ± 0.0078 |
| CUGAAG | 0.454 ± 0.056 | 1.92 ± 0.045 | 1.59 ± 0.032 | 0.669 ± 0.026 |
| GUGAAG | 0.168 ± 0.0046 | 1.73 ± 0.0073 | 1.15 ± 0.072 | 0.591 ± 0.023 |
| UUGAAG | 0.35 ± 0.06 | 1.93 ± 0.077 | 1.64 ± 0.059 | 0.6894 ± 0.0024 |
| AUGAAU | 0.418 ± 0.023 | 1.907 ± 0.01 | 1.66 ± 0.027 | 0.644 ± 0.066 |
| AUGACA | 0.303 ± 0.11 | 1.909 ± 0.013 | 1.8 ± 0.021 | 0.344 ± 0.049 |
| CUGACA | 0.453 ± 0.025 | 1.89 ± 0.0074 | 1.821 ± 0.017 | 0.522 ± 0.12 |
